From patent US20200155655A1 (GACHON UNIVERSITY OF INDUSTRY ACADEMIC COOPERATION …, published 2020) come the findings set out here.

Experiment [1] addresses T1, leucyl-tRNA synthetase (LRS), endogenous in MEF cell lysate (UniProt Q8BMJ2 1-1178).
T1 construct: Endogenous protein immunoprecipitated from MEF cells
As to the kind of experiment: immunoprecipitation with Atg14L antibody from MEF cell lysate, Western blot.

The target in experiment [2] is T1, leucyl-tRNA synthetase (LRS), …. As to the kind of experiment: co-immunoprecipitation from MEF cell lysate, Western blot. The method, then: Particularly, MEF cells stimulated by amino acids by the same manner as described in Example <1-1> were washed with cold PBS. At this time, MEF cells unstimulated with amino acids were used as the control. The cells were lysed in mild lysis buffer (MLB: 10 mM Tris (pH 7.5), 2 mM EDTA, 100 mM NaCl, […], 50 mM NaF, 1 mM Na₃VO₄ and protease inhibitor cocktail (Sigma)). On the other hand, for immunoprecipitation of LRS, the cells were lysed in MIPT buffer. Then, the lysate was microcentrifuged at 13,000×g for 10 minutes to collect supernatant. An antibody was added to the supernatant at 4° C., followed by immunoprecipitation. Reaction was induced in the presence of protein G-agarose or M2-beads (Sigma). The beads were washed with lysis buffer 3 to 5 times, followed by Western blotting according to the conventional method. Immunoprecipitation for Vps34 was performed with protein G-agarose beads, and immunoprecipitation for Flag-LRS was performed with M2-beads.

T1 sequence (Q8BMJ2 whole entry): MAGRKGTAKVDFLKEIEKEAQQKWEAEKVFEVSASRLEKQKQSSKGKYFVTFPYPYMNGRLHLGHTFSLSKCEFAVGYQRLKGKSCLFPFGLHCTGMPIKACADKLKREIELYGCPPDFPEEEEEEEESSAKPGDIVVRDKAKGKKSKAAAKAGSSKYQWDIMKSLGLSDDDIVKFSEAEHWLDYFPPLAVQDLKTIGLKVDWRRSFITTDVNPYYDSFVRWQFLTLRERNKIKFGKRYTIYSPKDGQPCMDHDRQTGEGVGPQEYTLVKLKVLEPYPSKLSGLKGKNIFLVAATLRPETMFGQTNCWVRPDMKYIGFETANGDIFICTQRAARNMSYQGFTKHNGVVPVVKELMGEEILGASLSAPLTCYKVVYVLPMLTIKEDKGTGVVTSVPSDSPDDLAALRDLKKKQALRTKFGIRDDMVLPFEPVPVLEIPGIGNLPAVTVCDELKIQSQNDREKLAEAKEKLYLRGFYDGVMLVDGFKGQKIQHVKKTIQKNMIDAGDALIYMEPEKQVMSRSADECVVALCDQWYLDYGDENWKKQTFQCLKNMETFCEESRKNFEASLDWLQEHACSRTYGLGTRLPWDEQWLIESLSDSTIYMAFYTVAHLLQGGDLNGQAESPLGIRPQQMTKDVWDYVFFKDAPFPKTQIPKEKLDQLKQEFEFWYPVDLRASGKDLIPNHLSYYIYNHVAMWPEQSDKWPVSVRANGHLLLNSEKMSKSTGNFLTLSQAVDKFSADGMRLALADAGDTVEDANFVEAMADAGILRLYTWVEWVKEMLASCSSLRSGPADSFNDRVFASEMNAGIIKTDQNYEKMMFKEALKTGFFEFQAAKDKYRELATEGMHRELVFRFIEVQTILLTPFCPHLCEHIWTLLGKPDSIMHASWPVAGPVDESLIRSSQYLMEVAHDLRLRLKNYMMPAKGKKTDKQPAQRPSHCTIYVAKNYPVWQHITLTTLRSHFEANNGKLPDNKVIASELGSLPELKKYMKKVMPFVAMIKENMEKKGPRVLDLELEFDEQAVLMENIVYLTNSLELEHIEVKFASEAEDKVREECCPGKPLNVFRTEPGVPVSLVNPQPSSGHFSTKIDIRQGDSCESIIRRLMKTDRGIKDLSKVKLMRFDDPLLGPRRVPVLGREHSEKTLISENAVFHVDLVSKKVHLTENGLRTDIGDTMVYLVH

B1: Atg14L, endogenous in MEF cell lysate (other, UniProt Q8CDJ3 1-492, looked up)
chain: MASPSGKGSWTPEAPGFGPRALARDLVDSVDDAEGLYVAVERCPLCNTTRRRLTCAKCVQSGDFVYFDGRDRERFIDKKERLSQLKNKQEEFQKEVLKAMEGKRLTDQLRWKIMSCKMRIEQLKQTICKGNEEMKKNSEGLLKNKEKNQKLYSRAQRHQEKKEKIQRHNRKLGDLVEKKTIDLKSHYERLARLRRSHILELTSIIFPIDEVKTSGRDPADVSSETDSAMTSSMVSKLAEARRTTYLSGRWVCDDHNGDTSISITGPWISLPNNGDYSAYYNWVEEKKTTQGPDMEHNNPAYTISAALGYATQLVNIVSHILDINLPKKLCNSEFCGENLSKQKLTRAVRKLNANILYLCSSQHVNLDQLQPLHTLRNLMHLVSPRSEHLGRSGPFEVRADLEESMEFVDPGVAGESDASGDERVSDEETDLGTDWENLPSPRFCDIPSQPVEVSQSQSTQVSPPIASSSAGGMISSAAASVTSWFKAYTGHR
notes: Endogenous protein; also called autophagic Vps34 complex
As for B1, the binding result in experiment [1] is “no binding”.

B2: Vps34 (vacuolar protein sorting 34), endogenous in MEF cell lysate (enzyme, UniProt Q6PF93 1-887, looked up)
chain: MGEAEKFHYIYSCDLDINVQLKIGSLEGKREQKSYKAVLEDPMLKFSGLYQETCSDLYVTCQVFAEGKPLALPVRTSYKAFSTRWNWNEWLKLPVKYPDLPRNAQVALTIWDVYGPGSAVPVGGTTVSLFGKYGMFRQGMHDLKVWPNVEADGSEPTRTPGRTSSTLSEDQMSRLAKLTKAHRQGHMVKVDWLDRLTFREIEMINESEKRSSNFMYLMVEFRCVKCDDKEYGIVYYEKDGDESSPILTSFELVKVPDPQMSMENLVESKHHKLARSLRSGPSDHDLKPNATTRDQLNIIVSYPPTKQLTYEEQDLVWKFRYYLTNQEKALTKFLKCVNWDLPQEAKQALELLGKWKPMDVEDSLELLSSHYTNPTVRRYAVARLRQADDEDLLMYLLQLVQALKYENFDDIKNGLEPTKKDSQTSASESLSNSGVSSGDIDSSQIITNPLPPVASPPPASKAKEVSDGENLEQDLCTFLISRACKNSTLANYLYWYVIVECEDQDTQQRDPKTHEMYLNVMRRFSQALLKGDKSVRVMRSLLAAQQTFVDRLVHLMKAVQRESGNRKKKNERLQALLGDNEKMNLSDVELIPLPLEPQVKIRGIIPETATLFKSALMPAQLFFKTEDGGKYPVIFKHGDDLRQDQLILQIISLMDKLLRKENLDLKLTPYKVLATSTKHGFMQFIQSVPVAEVLDTEGSIQNFFRKYAPSETGPYGISAEVMDTYVKSCAGYCVITYILGVGDRHLDNLLLTKTGKLFHIDFGYILGRDPKPLPPPMKLNKEMVEGMGGTQSEQYQEFRKQCYTAFLHLRRYSNLILNLFSLMVDANIPDIALEPDKTVKKVQDKFRLDLSDEEAVHYMQSLIDESVHALFAAVVEQIHKFAQYWRK
notes: Endogenous protein from MEF cells; also called Vps34 immune complex
For the molecule B2, the binding result in experiment [2] is recorded as “binds”.
